Common to all, as to assay type: binding, cotton
Test [1] deals with GhCOI1. The test can be described thus: Yeast two hybrid with GhCOI1. Particulars: in the presence of JA-Ile. Here is the method: (§1) The study on Arabidopsis had shown that the inhibition of JAZ protein on JA signaling was mainly achieved by inhibiting the transcription factor function of MYC, which had been experimentally verified by us in cotton. Based on the phylogenetic tree of Arabidopsis and cotton JAZs, we screened 6 cotton JAZs (GhJAZ1, GhJAZ7, GhJAZ9, GhJAZ10, GhJAZ11 and GhJAZ31), which were analyzed with GhMYC2, GhNINJA, GhTPL, GhHDA6, and GhCOI1 for yeast two hybrid. The amino acid sequence of GhJAZ1 was set forth in SEQ ID No. 4, and the corresponding encoding gene sequence was set forth in SEQ ID No. 39; the amino acid sequence of GhJAZ7 was set forth in SEQ ID No. 7, and the corresponding encoding gene sequence was set forth in SEQ ID No. 42; the amino acid sequence of GhJAZ9 was set forth in SEQ ID No. 2, and the corresponding encoding gene sequence was set forth in SEQ ID No. 37; the amino acid sequence of GhJAZ10 was set forth in SEQ ID No. 3, and the corresponding encoding gene sequence was set forth in SEQ ID No. 38; the amino acid sequence of GhJAZ11 was set forth in SEQ ID No. 5, and the corresponding encoding gene sequence was set forth in SEQ ID No. 40; and the amino acid sequence of GhJAZ31 was set forth in SEQ ID No. 9, and the corresponding encoding gene sequence was set forth in SEQ ID No. 44. The amino acid sequence of GhMYC2 was set forth in SEQ ID No. 71, and the corresponding encoding gene sequence was set forth in SEQ ID No. 72; the amino acid sequence of GhNINJA was set forth in SEQ ID No. 73, and the corresponding encoding gene sequence was set forth in SEQ ID No. 74; the amino acid sequence of GhTPL was set forth in SEQ ID No. 75, and the corresponding encoding gene sequence was set forth in SEQ ID No. 76; the amino acid sequence of GhHDA6 was set forth in SEQ ID No. 77, and the corresponding encoding gene sequence was set forth in SEQ ID No. 78; and the amino acid sequence of GhCOI1 was set forth in SEQ ID No. 79, and the corresponding encoding gene sequence was set forth in SEQ ID No. 80. […]

Test [2] relates to GhMYC2. Kind of test: Yeast two hybrid with GhMYC2. Here is the method:
as §1

For test [3], the system named is GhNINJA. Kind of test: Yeast two hybrid with GhNINJA. Here is the method:
as §1, with “44.” for “44. The amino acid sequence of GhMYC2 was set forth in SEQ ID No. 71, and the corresponding encoding gene sequence was set forth in SEQ ID No. 72; the amino acid sequence of GhNINJA was set forth in SEQ ID No. 73, and the corresponding encoding gene sequence was set forth in SEQ ID No. 74; the amino acid sequence of GhTPL was set forth in SEQ ID No. 75, and the corresponding encoding gene sequence was set forth in SEQ ID No. 76; the amino acid sequence of GhHDA6 was set forth in SEQ ID No. 77, and the corresponding encoding gene sequence was set forth in SEQ ID No. 78; and the amino acid sequence of GhCOI1 was set forth in SEQ ID No. 79, and the corresponding encoding gene sequence was set forth in SEQ ID No. 80.”

Test [4] concerns GhTPL. The test can be described thus: Yeast two hybrid with GhTPL. As to the method: as §1
In test [5] the test system is GhMYC2. Kind of test: Luciferase experiment in tobacco leaves with GhMYC2. Particulars: no fluorescence on the control. The text has this: Method of the luciferase experiment: GhJAZ1 (corresponding encoding gene sequence set forth in SEQ ID No. 39) was subcloned into pCAMBIA-CLuc vector (Chen, H., et al. “Firefly Luciferase Complementation Imaging Assay for Protein-Protein Interactions in Plants.” Plant Physiology 146.2(2008):368-376.) between KpnI and SalI cleavage sites, and the transcription factors such as GhMYC2 (corresponding encoding gene sequence set forth in SEQ ID No. 72), GhNINJA (corresponding encoding gene sequence set forth in SEQ ID No. 74), and GhCOI1 (corresponding encoding gene sequence set forth in SEQ ID No. 80) were subcloned into pCAMBIA-NLuc (Chen, H., et al. “Firefly Luciferase Complementation Imaging Assay for Protein-Protein Interactions in Plants.” Plant Physiology 146.2(2008):368-376.) between KpnI and SalI cleavage sites, respectively. […] Luciferase substrates were applied at the infected leaves before taking images and placed in a dark room for at least 6 min to quench fluorescence, followed by observation on the Nightowl-II LB983 instrument, using IndigoBasic software under the luciferase-5 min setting conditions.
Sequence of GhMYC2 (as listed by the source): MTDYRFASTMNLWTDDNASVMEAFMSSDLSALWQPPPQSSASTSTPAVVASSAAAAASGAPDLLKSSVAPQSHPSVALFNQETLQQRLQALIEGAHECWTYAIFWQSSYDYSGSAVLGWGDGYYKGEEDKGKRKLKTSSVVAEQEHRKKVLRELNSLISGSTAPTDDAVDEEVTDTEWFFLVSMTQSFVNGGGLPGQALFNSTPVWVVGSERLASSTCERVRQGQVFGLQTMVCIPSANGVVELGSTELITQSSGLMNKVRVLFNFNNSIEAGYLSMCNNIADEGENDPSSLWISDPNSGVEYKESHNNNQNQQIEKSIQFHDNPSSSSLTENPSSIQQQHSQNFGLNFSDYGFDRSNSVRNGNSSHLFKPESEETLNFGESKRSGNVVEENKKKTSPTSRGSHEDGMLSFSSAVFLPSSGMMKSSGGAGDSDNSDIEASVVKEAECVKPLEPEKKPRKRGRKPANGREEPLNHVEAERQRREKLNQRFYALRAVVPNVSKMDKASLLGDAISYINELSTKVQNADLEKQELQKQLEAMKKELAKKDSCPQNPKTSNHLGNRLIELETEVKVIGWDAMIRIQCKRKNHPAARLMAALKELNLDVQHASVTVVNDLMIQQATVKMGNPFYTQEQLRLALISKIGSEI

Sequence of GhCOI1 (as listed by the source): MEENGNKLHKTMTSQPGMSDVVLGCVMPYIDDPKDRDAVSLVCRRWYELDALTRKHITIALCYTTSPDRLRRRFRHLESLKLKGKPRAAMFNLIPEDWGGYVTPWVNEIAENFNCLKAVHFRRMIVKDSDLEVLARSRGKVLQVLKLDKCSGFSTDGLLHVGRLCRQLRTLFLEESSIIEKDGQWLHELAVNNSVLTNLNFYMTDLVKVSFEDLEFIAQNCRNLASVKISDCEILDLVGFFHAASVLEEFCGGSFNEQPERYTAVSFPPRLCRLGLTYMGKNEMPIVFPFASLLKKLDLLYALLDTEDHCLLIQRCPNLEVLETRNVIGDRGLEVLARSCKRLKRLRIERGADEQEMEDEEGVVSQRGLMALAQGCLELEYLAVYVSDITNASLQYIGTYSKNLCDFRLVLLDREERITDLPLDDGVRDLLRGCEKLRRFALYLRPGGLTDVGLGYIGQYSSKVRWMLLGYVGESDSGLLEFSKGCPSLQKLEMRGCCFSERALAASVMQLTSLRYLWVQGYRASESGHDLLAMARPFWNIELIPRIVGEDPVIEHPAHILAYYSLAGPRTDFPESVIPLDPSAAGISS
Sequence of GhTPL (as listed by the source): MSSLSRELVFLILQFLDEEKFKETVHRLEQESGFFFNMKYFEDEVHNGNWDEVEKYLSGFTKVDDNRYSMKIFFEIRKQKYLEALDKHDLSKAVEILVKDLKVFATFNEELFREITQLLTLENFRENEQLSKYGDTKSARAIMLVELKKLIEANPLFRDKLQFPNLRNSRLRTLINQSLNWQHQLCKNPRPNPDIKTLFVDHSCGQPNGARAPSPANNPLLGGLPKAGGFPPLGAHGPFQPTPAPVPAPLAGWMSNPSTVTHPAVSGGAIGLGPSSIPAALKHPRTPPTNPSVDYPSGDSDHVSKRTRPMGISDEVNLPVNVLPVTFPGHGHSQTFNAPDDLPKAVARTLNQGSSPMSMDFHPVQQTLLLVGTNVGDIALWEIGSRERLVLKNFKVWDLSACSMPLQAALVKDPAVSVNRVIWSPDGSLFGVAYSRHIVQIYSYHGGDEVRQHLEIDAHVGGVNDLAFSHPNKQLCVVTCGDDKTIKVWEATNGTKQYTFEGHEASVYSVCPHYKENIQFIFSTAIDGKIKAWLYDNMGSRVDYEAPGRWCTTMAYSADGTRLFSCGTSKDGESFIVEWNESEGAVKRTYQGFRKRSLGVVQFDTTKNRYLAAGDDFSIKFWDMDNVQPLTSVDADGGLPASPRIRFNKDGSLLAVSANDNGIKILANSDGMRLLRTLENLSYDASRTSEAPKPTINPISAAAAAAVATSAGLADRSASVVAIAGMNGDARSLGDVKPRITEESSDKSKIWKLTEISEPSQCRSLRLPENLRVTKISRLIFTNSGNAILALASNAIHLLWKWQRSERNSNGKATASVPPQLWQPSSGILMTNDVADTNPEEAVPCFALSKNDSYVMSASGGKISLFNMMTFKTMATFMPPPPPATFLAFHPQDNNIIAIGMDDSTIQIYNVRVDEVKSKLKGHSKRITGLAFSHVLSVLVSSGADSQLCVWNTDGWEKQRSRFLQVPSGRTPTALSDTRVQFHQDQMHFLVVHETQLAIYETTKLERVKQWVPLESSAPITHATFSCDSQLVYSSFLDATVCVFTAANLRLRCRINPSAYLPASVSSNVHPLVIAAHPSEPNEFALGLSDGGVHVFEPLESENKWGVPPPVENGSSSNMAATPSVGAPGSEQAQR
Sequence of GhNINJA (as listed by the source): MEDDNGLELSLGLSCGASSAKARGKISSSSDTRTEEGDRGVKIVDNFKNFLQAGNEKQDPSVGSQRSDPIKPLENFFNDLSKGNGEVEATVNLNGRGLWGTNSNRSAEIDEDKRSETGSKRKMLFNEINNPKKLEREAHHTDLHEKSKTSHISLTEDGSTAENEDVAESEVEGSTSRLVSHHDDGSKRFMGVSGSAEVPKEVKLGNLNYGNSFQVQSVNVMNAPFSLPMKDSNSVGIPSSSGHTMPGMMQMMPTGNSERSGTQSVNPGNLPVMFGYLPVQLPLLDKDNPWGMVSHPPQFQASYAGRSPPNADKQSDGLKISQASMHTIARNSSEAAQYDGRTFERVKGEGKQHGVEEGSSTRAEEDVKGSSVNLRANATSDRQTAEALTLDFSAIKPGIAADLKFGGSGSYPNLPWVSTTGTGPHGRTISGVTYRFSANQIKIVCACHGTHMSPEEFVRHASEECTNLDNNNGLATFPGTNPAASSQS

B1: GhJAZ1 after deletion of ZIM domain: GhJAZ1 mutant with ZIM domain deleted, protein sequence SEQ ID No. 85 (protein)
chain: MSSCSESTAMKPARSPEKPSFAQTCNLLSQYLKEKGSFGDLSLGMTCNVEANGTPVVPPPTMNLFPLNDKSDDVCGRNGGNPKNLTSMDLFPQQAGLASKDDSPNKLEPQTASSSQSNNSFNPIPFTSSIARSPIESSIGVPPTSKPVHPAQRAVPGDLPIARRASLHRFLEKRKDRITAKAPYQINNSAAAPSLSGDNKSWLGLAAQSP
Turning to B1, the “interaction with GhCOI1” value in test [1] is given as “significantly weakened”. The “interaction with GhMYC2” value in test [2] is given as “significantly weakened”. Besides, in test [3], the “interaction with GhNINJA” value was “significantly weakened”.

B2: GhJAZ1 after deletion of Jas domain: GhJAZ1 mutant with Jas domain deleted, protein sequence SEQ ID No. 87 (protein)
chain: MSSCSESTAMKPARSPEKPSFAQTCNLLSQYLKEKGSFGDLSLGMTCNVEANGTPVVPPPTMNLFPLNDKSDDVCGRNGGNPKNLTSMDLFPQQAGLASKDDSPNKLEPQTAPMTIFYGGQVIVFNDFPANKAKEIMLLASNSSSQSNNSFNPIPFTSSIARSPIESSIGVPPTSKPVHPAQRAVPGNNSAAAPSLSGDNKSWLGLAAQSP
In the case of B2, in test [4], the “interaction with GhTPL” value is “significantly weakened”. The “interaction with GhCOI1” value in test [1] is “significantly weakened”.

B3: GhJAZ9: cotton JAZ9 protein, sequence SEQ ID No. 2, highest homology to AtJAZ9 (protein)
chain: MERDFLGLNSNEPLAVVKDDVNTDKYKQIGFTKSSGIQWPFSNKVFAVPQLMNFNFAQGDKTKKTGYDSKVSPLFMPISTMDASELQKSFNHNWNGGGHFSLTDSHVQHNTNMFPASNQTISVSGSNPFVKNHFTTTGQNFPANTIKPQFLGGVPVTTPHSVLPTLGTVGGSVEPCAQTSGSPAQLTIFYAGEVNVFDDITPEKAQAIMFLAGNGSSMASNSAYPKPPVQTPILKPVQVDSVPANQLINTQLSFGMPSPLPVSSHAGMQSWSGSTSTEEQIICKASVPPTPSTPISKLESPNLVNTMGSDAATGMMPSVPQARKASLARFLEKRKGRIMSTASPYNLISKKSLDYATTMESNA
Regarding B3, in test [5], the “fluorescence with GhMYC2 after applying luciferase substrate” value is “weaker fluorescence”. Also, the “interaction with GhMYC2” value in test [2] was “weak”.

For the origin of these results see patent US20240279288A1, “APPLICATION OF PLANT JAZ PROTEINS AND DERIVED POLYPEPTIDES IN PREVENTION AND TREATMENT OF HUMAN AND ANIMAL TUMORS” (ANYANG INSTITUTE OF SINO-COTTON INDUSTRY INNOVATION, priority 2021, published 2024).
